In patent US20210101973A1:
Ends that are not written are not given here.

How the values were obtained:
[1] = target: GHSR on the PathHunter U2OS GHSR beta-Arrestin Cell Line (DiscoverX), Q92847; test: cell-based or functional assay
[2] = target: wild-type GHSR stably expressed in an independent cell line (calcium mobilization assay), Q92847; test: cell-based or functional assay
Sequence of wild-type GHSR stably expressed in an independent cell line (calcium mobilization assay), Q92847 (Q92847 whole entry): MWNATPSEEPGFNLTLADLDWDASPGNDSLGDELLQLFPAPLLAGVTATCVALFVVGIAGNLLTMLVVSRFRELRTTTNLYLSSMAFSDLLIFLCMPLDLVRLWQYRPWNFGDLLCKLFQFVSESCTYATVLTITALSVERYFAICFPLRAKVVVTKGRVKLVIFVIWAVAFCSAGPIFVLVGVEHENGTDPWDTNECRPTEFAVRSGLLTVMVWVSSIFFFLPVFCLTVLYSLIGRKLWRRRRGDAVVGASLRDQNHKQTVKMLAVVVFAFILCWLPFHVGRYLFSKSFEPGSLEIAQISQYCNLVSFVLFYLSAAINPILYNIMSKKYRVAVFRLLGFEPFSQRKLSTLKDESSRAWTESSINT

IC50 of inhibition of ghrelin-induced GHSR activation, PathHunter beta-arrestin assay, antagonist format (ghrelin 13 nM) [1]: 6.74 nM
IC50 of abrogation of ghrelin-induced GHSR activity, calcium mobilization (FLUO-3) [2]: 11.6 nM
B1: synthetic LEAP2 peptide (mature peptide of human LEAP2) (peptide)
peptide: MTPFWRGVSLRPIGASCRDDSECITRLCRKRRCSLSVAQE
modifications: disulfide (positions not given here); also: labeled with Alexa 647, site not given here
